Numbered stars: 1 amine (or outer) side, 2 acyl side, 3 side chain; on linkers, the order of the positions; unused ones are H or OH. Bridge positions count the residues as written; N and C are the ends. Side chains are listed from the residue outwards. Ends that are not written are not given here. * marks the point of attachment. C20 diacid = O=C(O)CCCCCCCCCCCCCCCCCCC(=O)*; C18 diacid = O=C(O)CCCCCCCCCCCCCCCCC(=O)*; C16 diacid = O=C(O)CCCCCCCCCCCCCCC(=O)*; γGlu = O=C(O)[C@H](CCC(=O)[*:2])N[*:1]; AEEA = NCCOCCOCC(=O)O
T1: human amylin receptor (human, UniProt P30988 25-474; O60896 24-148, limits assumed)
T1 construct: whole, on cells; Calcitonin receptor plus RAMP-3 gives the amylin 3(a) receptor; membranes of Amylin 3(a)/CRE-luc cells were used; also called hAmylin-R; hAmylinR
T1 sequence (looked up) 1: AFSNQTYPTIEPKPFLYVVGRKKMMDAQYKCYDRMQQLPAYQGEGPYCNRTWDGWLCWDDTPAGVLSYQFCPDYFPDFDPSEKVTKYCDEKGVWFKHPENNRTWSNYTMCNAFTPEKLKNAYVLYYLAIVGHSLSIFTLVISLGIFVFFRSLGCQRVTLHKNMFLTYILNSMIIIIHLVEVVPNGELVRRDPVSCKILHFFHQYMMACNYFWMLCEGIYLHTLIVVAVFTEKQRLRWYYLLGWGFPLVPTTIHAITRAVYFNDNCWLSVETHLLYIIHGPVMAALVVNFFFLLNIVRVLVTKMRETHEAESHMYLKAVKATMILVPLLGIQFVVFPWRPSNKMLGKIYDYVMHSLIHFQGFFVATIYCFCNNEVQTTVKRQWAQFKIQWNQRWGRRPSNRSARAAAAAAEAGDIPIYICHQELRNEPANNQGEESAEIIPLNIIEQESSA
T1 sequence (looked up) 2: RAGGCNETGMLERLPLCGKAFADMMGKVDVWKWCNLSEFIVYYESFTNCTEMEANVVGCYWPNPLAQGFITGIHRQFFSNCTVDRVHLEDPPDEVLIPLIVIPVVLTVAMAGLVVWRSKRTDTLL


Target: T1, human amylin receptor
Assay: SPA competition binding, displacement of 125I-rat amylin from membranes with human amylin 3(a) receptor (Assay V)
In short: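 SPA beads with BHK Amylin 3(a)/CRE-luc cell membranes (35 ng/μL final) in 50 mM Hepes pH 7.4, 1 mM CaCl2, 5 mM MgCl₂, 0.1% OA, 0.02% Tween20.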

Binder | IC50 [nM]
K([AEEA-γGlu-C20 diacid])CNTATCATQRLAHFLRHSSPNFGAIPSSTNVGSNTY-NH2 (disulfide 2-7; N-terminus assumed; SMILES CC[C@H](C)[C@H](NC(=O)[C@H](C)NC(=O)CNC(=O)[C@H](Cc1ccccc1)NC(=O)[C@H](CC(N)=O)NC(=O)[C@@H]1CCCN1C(=O)[C@H](CO)NC(=O)[C@H](CO)NC(=O)[C@H](Cc1c[nH]cn1)NC(=O)[C@H](CCCNC(=N)N)NC(=O)[C@H](CC(C)C)NC(=O)[C@H](Cc1ccccc1)NC(=O)[C@H](Cc1c[nH]cn1)NC(=O)[C@H](C)NC(=O)[C@H](CC(C)C)NC(=O)[C@H](CCCNC(=N)N)NC(=O)[C@H](CCC(N)=O)NC(=O)[C@@H](NC(=O)[C@H](C)NC(=O)[C@@H]1CSSC[C@H](NC(=O)[C@@H](N)CCCCNC(=O)COCCOCCNC(=O)CC[C@H](NC(=O)CCCCCCCCCCCCCCCCCCC(=O)O)C(=O)O)C(=O)N[C@@H](CC(N)=O)C(=O)N[C@@H]([C@@H](C)O)C(=O)N[C@@H](C)C(=O)N[C@@H]([C@@H](C)O)C(=O)N1)[C@@H](C)O)C(=O)N1CCC[C@H]1C(=O)N[C@@H](CO)C(=O)N[C@@H](CO)C(=O)N[C@H](C(=O)N[C@@H](CC(N)=O)C(=O)N[C@H](C(=O)NCC(=O)N[C@@H](CO)C(=O)N[C@@H](CC(N)=O)C(=O)N[C@H](C(=O)N[C@@H](Cc1ccc(O)cc1)C(N)=O)[C@@H](C)O)C(C)C)[C@@H](C)O, also called 14H, 17R, 21P, 27P) | 0.133
K([AEEA-γGlu-C20 diacid])CNTATCATQRLAKFLRHSSPNFGAIPSSTPVGSNTY-NH2 (disulfide 2-7; N-terminus assumed; SMILES CC[C@H](C)[C@H](NC(=O)[C@H](C)NC(=O)CNC(=O)[C@H](Cc1ccccc1)NC(=O)[C@H](CC(N)=O)NC(=O)[C@@H]1CCCN1C(=O)[C@H](CO)NC(=O)[C@H](CO)NC(=O)[C@H](Cc1c[nH]cn1)NC(=O)[C@H](CCCNC(=N)N)NC(=O)[C@H](CC(C)C)NC(=O)[C@H](Cc1ccccc1)NC(=O)[C@H](CCCCN)NC(=O)[C@H](C)NC(=O)[C@H](CC(C)C)NC(=O)[C@H](CCCNC(=N)N)NC(=O)[C@H](CCC(N)=O)NC(=O)[C@@H](NC(=O)[C@H](C)NC(=O)[C@@H]1CSSC[C@H](NC(=O)[C@@H](N)CCCCNC(=O)COCCOCCNC(=O)CC[C@H](NC(=O)CCCCCCCCCCCCCCCCCCC(=O)O)C(=O)O)C(=O)N[C@@H](CC(N)=O)C(=O)N[C@@H]([C@@H](C)O)C(=O)N[C@@H](C)C(=O)N[C@@H]([C@@H](C)O)C(=O)N1)[C@@H](C)O)C(=O)N1CCC[C@H]1C(=O)N[C@@H](CO)C(=O)N[C@@H](CO)C(=O)N[C@H](C(=O)N1CCC[C@H]1C(=O)N[C@H](C(=O)NCC(=O)N[C@@H](CO)C(=O)N[C@@H](CC(N)=O)C(=O)N[C@H](C(=O)N[C@@H](Cc1ccc(O)cc1)C(N)=O)[C@@H](C)O)C(C)C)[C@@H](C)O, also called 14K, 17R, 21P, 27P, 31P) | 0.791
K([AEEA-γGlu-C20 diacid])CNTATCATQRLASFLRHSSPNFGAIPSSTPVGSNTY-NH2 (disulfide 2-7; N-terminus assumed; SMILES CC[C@H](C)[C@H](NC(=O)[C@H](C)NC(=O)CNC(=O)[C@H](Cc1ccccc1)NC(=O)[C@H](CC(N)=O)NC(=O)[C@@H]1CCCN1C(=O)[C@H](CO)NC(=O)[C@H](CO)NC(=O)[C@H](Cc1c[nH]cn1)NC(=O)[C@H](CCCNC(=N)N)NC(=O)[C@H](CC(C)C)NC(=O)[C@H](Cc1ccccc1)NC(=O)[C@H](CO)NC(=O)[C@H](C)NC(=O)[C@H](CC(C)C)NC(=O)[C@H](CCCNC(=N)N)NC(=O)[C@H](CCC(N)=O)NC(=O)[C@@H](NC(=O)[C@H](C)NC(=O)[C@@H]1CSSC[C@H](NC(=O)[C@@H](N)CCCCNC(=O)COCCOCCNC(=O)CC[C@H](NC(=O)CCCCCCCCCCCCCCCCCCC(=O)O)C(=O)O)C(=O)N[C@@H](CC(N)=O)C(=O)N[C@@H]([C@@H](C)O)C(=O)N[C@@H](C)C(=O)N[C@@H]([C@@H](C)O)C(=O)N1)[C@@H](C)O)C(=O)N1CCC[C@H]1C(=O)N[C@@H](CO)C(=O)N[C@@H](CO)C(=O)N[C@H](C(=O)N1CCC[C@H]1C(=O)N[C@H](C(=O)NCC(=O)N[C@@H](CO)C(=O)N[C@@H](CC(N)=O)C(=O)N[C@H](C(=O)N[C@@H](Cc1ccc(O)cc1)C(N)=O)[C@@H](C)O)C(C)C)[C@@H](C)O, also called 14S, 17R, 21P, 27P, 31P) | 0.104
K([γGlu-C18 diacid])CNTATCATQRLANFLRHSSPNFGAIPSSTNVGHNTY-NH2 (disulfide 2-7; N-terminus assumed; SMILES CC[C@H](C)[C@H](NC(=O)[C@H](C)NC(=O)CNC(=O)[C@H](Cc1ccccc1)NC(=O)[C@H](CC(N)=O)NC(=O)[C@@H]1CCCN1C(=O)[C@H](CO)NC(=O)[C@H](CO)NC(=O)[C@H](Cc1c[nH]cn1)NC(=O)[C@H](CCCNC(=N)N)NC(=O)[C@H](CC(C)C)NC(=O)[C@H](Cc1ccccc1)NC(=O)[C@H](CC(N)=O)NC(=O)[C@H](C)NC(=O)[C@H](CC(C)C)NC(=O)[C@H](CCCNC(=N)N)NC(=O)[C@H](CCC(N)=O)NC(=O)[C@@H](NC(=O)[C@H](C)NC(=O)[C@@H]1CSSC[C@H](NC(=O)[C@@H](N)CCCCNC(=O)CC[C@H](NC(=O)CCCCCCCCCCCCCCCCC(=O)O)C(=O)O)C(=O)N[C@@H](CC(N)=O)C(=O)N[C@@H]([C@@H](C)O)C(=O)N[C@@H](C)C(=O)N[C@@H]([C@@H](C)O)C(=O)N1)[C@@H](C)O)C(=O)N1CCC[C@H]1C(=O)N[C@@H](CO)C(=O)N[C@@H](CO)C(=O)N[C@H](C(=O)N[C@@H](CC(N)=O)C(=O)N[C@H](C(=O)NCC(=O)N[C@@H](Cc1c[nH]cn1)C(=O)N[C@@H](CC(N)=O)C(=O)N[C@H](C(=O)N[C@@H](Cc1ccc(O)cc1)C(N)=O)[C@@H](C)O)C(C)C)[C@@H](C)O, also called 17R, 21P, 27P, 34H) [N^ε1-[(4S)-4-carboxy-4-(17-carboxyheptadecanoylamino)butanoyl]-[Arg17,Pro21,Pro27,His34]-h-amylin] | 0.382
K([γGlu-C16 diacid])CNTATCATQRLANFLRHSSPNFGAIPSSTNVGHNTY-NH2 (disulfide 2-7; N-terminus assumed; SMILES CC[C@H](C)[C@H](NC(=O)[C@H](C)NC(=O)CNC(=O)[C@H](Cc1ccccc1)NC(=O)[C@H](CC(N)=O)NC(=O)[C@@H]1CCCN1C(=O)[C@H](CO)NC(=O)[C@H](CO)NC(=O)[C@H](Cc1c[nH]cn1)NC(=O)[C@H](CCCNC(=N)N)NC(=O)[C@H](CC(C)C)NC(=O)[C@H](Cc1ccccc1)NC(=O)[C@H](CC(N)=O)NC(=O)[C@H](C)NC(=O)[C@H](CC(C)C)NC(=O)[C@H](CCCNC(=N)N)NC(=O)[C@H](CCC(N)=O)NC(=O)[C@@H](NC(=O)[C@H](C)NC(=O)[C@@H]1CSSC[C@H](NC(=O)[C@@H](N)CCCCNC(=O)CC[C@H](NC(=O)CCCCCCCCCCCCCCC(=O)O)C(=O)O)C(=O)N[C@@H](CC(N)=O)C(=O)N[C@@H]([C@@H](C)O)C(=O)N[C@@H](C)C(=O)N[C@@H]([C@@H](C)O)C(=O)N1)[C@@H](C)O)C(=O)N1CCC[C@H]1C(=O)N[C@@H](CO)C(=O)N[C@@H](CO)C(=O)N[C@H](C(=O)N[C@@H](CC(N)=O)C(=O)N[C@H](C(=O)NCC(=O)N[C@@H](Cc1c[nH]cn1)C(=O)N[C@@H](CC(N)=O)C(=O)N[C@H](C(=O)N[C@@H](Cc1ccc(O)cc1)C(N)=O)[C@@H](C)O)C(C)C)[C@@H](C)O, also called 17R, 21P, 27P, 34H) [N^ε1-[(4S)-4-carboxy-4-(15-carboxypentadecanoylamino)butanoyl]-[Arg17,Pro21,Pro27,His34]-h-amylin] | 0.58
K([AEEA-γGlu-C20 diacid])CNTATCATQRLATFLRHSSPNFGAIPSSTPVGSNTY-NH2 (disulfide 2-7; N-terminus assumed; SMILES CC[C@H](C)[C@H](NC(=O)[C@H](C)NC(=O)CNC(=O)[C@H](Cc1ccccc1)NC(=O)[C@H](CC(N)=O)NC(=O)[C@@H]1CCCN1C(=O)[C@H](CO)NC(=O)[C@H](CO)NC(=O)[C@H](Cc1c[nH]cn1)NC(=O)[C@H](CCCNC(=N)N)NC(=O)[C@H](CC(C)C)NC(=O)[C@H](Cc1ccccc1)NC(=O)[C@@H](NC(=O)[C@H](C)NC(=O)[C@H](CC(C)C)NC(=O)[C@H](CCCNC(=N)N)NC(=O)[C@H](CCC(N)=O)NC(=O)[C@@H](NC(=O)[C@H](C)NC(=O)[C@@H]1CSSC[C@H](NC(=O)[C@@H](N)CCCCNC(=O)COCCOCCNC(=O)CC[C@H](NC(=O)CCCCCCCCCCCCCCCCCCC(=O)O)C(=O)O)C(=O)N[C@@H](CC(N)=O)C(=O)N[C@@H]([C@@H](C)O)C(=O)N[C@@H](C)C(=O)N[C@@H]([C@@H](C)O)C(=O)N1)[C@@H](C)O)[C@@H](C)O)C(=O)N1CCC[C@H]1C(=O)N[C@@H](CO)C(=O)N[C@@H](CO)C(=O)N[C@H](C(=O)N1CCC[C@H]1C(=O)N[C@H](C(=O)NCC(=O)N[C@@H](CO)C(=O)N[C@@H](CC(N)=O)C(=O)N[C@H](C(=O)N[C@@H](Cc1ccc(O)cc1)C(N)=O)[C@@H](C)O)C(C)C)[C@@H](C)O, also called 14T, 17R, 21P, 27P, 31P) | 0.666

Source: US20140087995A1 (published 2014)
